Results reported in patent US20060150268A1, “Plant-derived transferase genes” (priority 2002, published 2006).

B1: tomHQT: hydroxycinnamoyl-CoA quinate hydroxycinnamoyl transferase from tomato, 430 amino acids, SEQ ID NO 1 (protein, listed as Lycopersicon esculentum)
chain: MGSEKMMKINIKESTLVKPSKPTPTKRIWSSNLDLIVGRIHLLTVYFYKPNGSSNFFDNKVIKEALSNVLVSFYPMAGRLGRDEQGRIEVNCNGEGVLFVEAESDSCVDDFGDFTPSLELRKLIPSVETSGDISTFPLVIFQITRFKCGGVALGGGVFHTLSDGLSSIHFINTWSDIARGLSVAVPPFIDRTLLRARDPPTYSFEHVEYHPPPTLNSSKNRESSTTTMLKFSSEQLGLLKSKSKNEGSTYEILAAHIWRCTCKARGLPEDQLTKLHVATDGRSRLCPPLPPGYLGNVVFTATPIAKSCELQSEPLTNSVKRIHNELIKMDDNYLRSALDYLELQPDLSTLIRGPAYFASPNLNINSWTRLPVHECDFGWGRPIHMGPACILYEGTIYIIPSPNSKDRNLRLAVCLDAGHMSLFEKYLYEL
B2: hsr201: tobacco hypersensitive response protein 201, a member of the transferase family (protein, UniProt Q8GT20 1-460, looked up)
Benzyl alcohol …: MDSKQSSELVFTVRRQKPELIAPAKPTPREIKFLSDIDDQEGLRFQIPVIQFYHKDSSMGRKDPVKVIKKAIAETLVFYYPFAGRLREGNGRKLMVDCTGEGIMFVEADADVTLEQFGDELQPPFPCLEELLYDVPDSAGVLNCPLLLIQVTRLRCGGFIFALRLNHTMSDAPGLVQFMTAVGEMARGASAPSILPVWCRELLNARNPPQVTCTHHEYDEVRDTKGTIIPLDDMVHKSFFFGPSEVSALRRFVPHHLRKCSTFELLTAVLWRCRTMSLKPDPEEEVRALCIVNARSRFNPPLPTGYYGNAFAFPVAVTTAAKLSKNPLGYALELVKKTKSDVTEEYMKSVADLMVLKGRPHFTVVRTFLVSDVTRGGFGEVDFGWGKAVYGGPAKGGVGAIPGVASFYIPFKNKKGENGIVVPICLPGFAMETFVKELDGMLKVDAPLDNSNYAIIRPAL
B3: tobHQT: hydroxycinnamoyl-CoA quinate hydroxycinnamoyl transferase from tobacco, 436 amino acids, SEQ ID NO 2 (protein, listed as Nicotiana tabacum)
chain: MGSEKMMKINIKESTLVKPSKPTPTKRLWSSNLDLIVGRIHLLTVYFYKPNGSSNFFDSKIMKEALSNVLVSFYPMAGRLARDEQGRIEINCNGEGVLFVEAESDAFVDDFGDFTPSLELRKLIPTVDTSGDISTFPLIIFQVTRFKCGGVSLGGGVFHTLSDGLSSIHFINTWSDIARGLSVAIPPFIDRTLLRARDPPTSSFEHVEYHPPPSLISSSKSLESTSPKPSTTTMLKFSSDQLGLLKSKSKHDGSTYEILAAHIWRCTCKARALSDDQLTKLHVATDGRSRLCPPLPPGYLGNVVFTGTPMAKSSELLQEPLTNSAKRIHSALSKMDDNYLRSALDYLELLPDLSALIRGPTYFASPNLNINSWTRLPVHDSDFGWGRPIHMGPACILYEGTVYILPSPNSKDRNLRLAVCLDADHMPLFEKYLYEF

Tests used:
[1] = system: leaves of Nicotiana benthamiana; experiment: Transient expression of HQT in leaves of Nicotiana benthamiana; type: in vivo; details: for HQT enzyme activity in leaves: plants expressing HQT under the control of the 35S promoter (FIG. 6); for amount of chlorogenic acid in vivo in plants: plants expressing HQT under the control of the 35S promoter, HPLC after 4 days (FIG. 6)
Protocol: Leaves were infiltrated with Agrobacterium tumefaciens C58C1 transformed with the plasmid pGFP, which contains the cDNA encoding GFP under control of the 35S promoter, along with bacteria transformed with either the plasmid p19 which carries a cDNA encoding a gene-silencing protein or the control plasmid pBIN19.
Soluble phenolics were extracted by vortexing 30 mg of frozen, powdered leaf material in 300 μl of 70% methanol. After addition of 100 μl distilled water, the extract was vortexed again and then spun for 10 sec at 13,000 g to pellet the debris. The supernatant was analysed by gradient HPLC (apparatus from Spectra Physics, San Jose, Calif.) using a Columbus 5-μm C18 column (25 cm×4.6 mm; Phenomenex, Macclesfiled, Cheshire, UK). Solvent A was 1 mM trifluoroacetic acid, solvent B was acetonitrile, and the gradient was run for 65 min at flow rate of 1 ml min^−1 with the following concentrations: 0 min :100% A, 0% B; 50 min: 60% A, 40% B; 60 min: 30% A, 70% B; 65 min: 100% A, 0% B. The column eluant was monitored using a Spctra Fous scanning detector (Spectra Physics). A chlorogenic acid standard (Sigma) was used to quantify the amount of chlorogenic acid in the leaf extracts.
After the transfer of the overexpression constructs pTom and pTob, and the iRNA constructs pFRNtom and pFRN-tob to Agrobacterium tumefaciens C58C1 (DEBLAERE et al., 1985) single colonies were used for growing 50 mL overnight cultures. Additional 50 ml overnight cultures of Agrobacterium tumefaciens C58C1 containing expression constructs of the green fluorescent protein (PGFP) or the gene silencing inhibitor protein 19 (p19; kindly provided by O. Vionnet) or the empty binary vectors pBIN19 and pFRN were also grown. The cells were precipitated by centrifugation at 4000 g for 20 min and resuspended in 50 ml 10 mM MgCl2. After addition of 50 μl 100 mM acetosyringene the cells were incubated at room temperature overnight. To overexpress HQT similar amounts of the cultures containing pGFP, pTom, pTob were mixed with the same volume of cultures containing either pBIN19 or p19 and each mixture was used to infiltrate three leaves of a Nicotiana benthamiana plant. […] For gene silencing the cultures containing pFRN-tom, pFRN-tob and pFRN were used to infiltrate three leaves of Nicotiana benthamiana.

[2] = system: HQT enzyme activity (caffeoyl CoA and quinic acid as substrates); experiment: HQT enzyme assay with crude extracts from E. coli expressing the recombinant protein; type: biochemical, Escherichia coli; details: recombinant protein expressed in E. coli, decrease of caffeoyl-CoA measured spectrophotometrically (FIG. 5)
Protocol: As described above, HQT catalyses the production of chlorogenic acid via transfer of the caffeoyl moiety of caffeoyl-CoA to quinic acid. Such activity can be assessed, for example, using the assay described in Example 2. Briefly, the assay uses caffeoyl CoA and quinic acid as substrates, and the rate of conversion of caffeoyl CoA to chlorogenic acid is determined by spectrophotometry.
The reaction was initiated by adding the substrate quinic acid and the enzyme activity was measured spectrophotometrically as decrease of the amount of caffeoyl-CoA.
The enzyme activity was determined by spectrophotometry at 30° C. The reaction mixture contained in a total volume of 1 ml: 100 mM Na-Pi buffer pH 7.0, 1 mM EDTA, 16.8 μM caffeoyl CoA and 10-50 μl protein extract. […] The extinction coefficient for caffeoyl CoA is 1.8×10^4 M^−1 cm^−1 (ZENK et al., 1980). The synthesis of caffeoyl CoA was carried out as described previously (SEMLER et al., 1987).
The full-length cDNA of HQT from tomato was subcloned in frame into the NcoI and BamHI-sites of the expression vector pSTAG under the control of the T7 RNA-Polymerase promoter. This strategy led to the introduction of a sequence encoding an S-TAG at the 5′-end of the cDNA. According to procedures provided by the manufacturer (Novagen), the expression and purification of the fusion protein was carried out using the S-TAG™ Thrombin Purification Kit. The enzyme activity of the purified protein was then analysed in HQT enzyme assays.

Molecule	HQT enzyme activity in leaves [1]	amount of chlorogenic acid in vivo in plants [1] [fold]	HQT enzyme activity [2]	HQT enzyme activity ([2]; listed as Hsr201)
B1	Increased HQT enzyme activity	2	showed HQT enzyme activity	–
B2	–	–	no enzyme activity was detected	no HQT enzyme activity
B3	Increased HQT enzyme activity	2	–	–
